Assay results as given in US11807881B2, “Polypeptide, fusion polypeptide, and antibiotic against gram-negative bacteria comprising same” (priority 2020, dated 2023).

Experiments:
Format in all cases: cell-based
P. aeruginosa = test: MIC and MBC, broth microdilution in CAA media
Protocol: (§1) In addition, MIC (Minimal Inhibitory Concentration) and MBC (Minimal Bactericidal Concentration) of the fusion polypeptide LNT103 were measured. […] Specifically, the LNT103 was treated at a concentration of 64 μg/ml to a 96 well microplate row A, and the LNT103 was treated at a concentration where serial dilution was performed by ½ in rows B-G. To the row H, LNT103 was not treated. After that, the corresponding bacterium strain (type or QC, CCARM and clinical separation strain; See Tables 2-4) was treated in an amount of 5×10^5 CFU/ml, total 100 μl in all wells. Then, it was cultured at 37° C. for 18 hours. MIC was determined to be the lowest concentration at which no colonies were identified by confirming the number of the colonies in each well.

E. coli [1] = test: MIC and MBC, broth microdilution in CAA media
Protocol: as §1

Salmonella typhimurium = test: Spot test (halo zone); parameters: key: ‘◯’ means production of the halo zone; settings: S. typhimurium ATCC 14028
Text: (§2) In the present example, in order to investigate a target bacteria spectrum of the bacteriophage PBPA90 selected in the Examples 1.1 and 1.2 and endolysin LNT101 separated and purifying in the Example 1.3, the antibacterial activity against gram negative bacterium such as Pseudomonas aeruginosa ATCC13388, ATCC9027, ATCC10145, ATCC15692, ATCC15522, ATCC25619, ATCC27853, CCARM2134, CCARM2200, CCARM2029, CCARM2144, CCARM2298, CCARM2326, PR01957, E. coli ATCC8739, Enterobacter cloacae CCARM0252, Klebsiella pneumoniae KCTC2261, Klebsiella aerogenes CCARM16006, Campylobacter jejuni KCTC5327, Cronobacter sakazakii KCTC2949, Salmonella typhimurium ATCC14028, Salmonella enteritidis ATCC13076 was tested.
(§3) The target bacteria spectrum of the bacteriophage PBPA90 and endolysin LNT101 was confirmed by a spot test. For the spot test, bacterium sterilized in 4 ml top agar (1% Tryptone, 0.5% Yeast extract, 0.5% NaCl, 0.7% agar) of 1×10^11 CFU/200 μl were added and poured to a LB plate. After hardening the top agar, the bacteriophage PBPA90 10 μl (1×10^8 PFU/ml) or LNT101 10 μl (2 mg/ml) was spotted, and it was incubated at 37° C. for 18 hours.

Campylobacter jejuni = test: Spot test (halo zone); parameters: key: ‘◯’ means production of the halo zone; settings: C. jejuni KCTC 5327
Text: as §2, §3

Klebsiella aerogenes = test: Spot test (halo zone); parameters: key: ‘◯’ means production of the halo zone; settings: K. aerugenes CCARM 16006
Text: as §2, §3

Klebsiella pneumoniae = test: Spot test (halo zone); parameters: key: ‘◯’ means production of the halo zone; settings: K. pneumoniae KCTC 2261
Text: as §2, §3

Enterobacter cloacae = test: Spot test (halo zone); parameters: key: ‘◯’ means production of the halo zone; settings: E. cloacae CCARM 0252
Text: as §2, §3

Pseudomonas aeruginosa = test: Spot test (halo zone); parameters: key: ‘◯’ means production of the halo zone
Text: as §2, §3

Cronobacter sakazakii = test: Spot test (halo zone); parameters: key: ‘◯’ means production of the halo zone; settings: C. sakazakii KCTC 2949
Text: as §2, §3

Salmonella enteritidis = test: Spot test (halo zone); parameters: key: ‘◯’ means production of the halo zone; settings: S. enteritidis ATCC 13076
Text: as §2, §3

E. coli [2] = test: Spot test (halo zone); parameters: key: ‘◯’ means production of the halo zone; settings: E. coli ATCC 8739
Text: as §2, §3

B1: LNT103: fusion polypeptide [Cecropin A]-[linker (GSGSGS)]-[endolysin LNT102]; SEQ ID NO: 15 (MAS, His tag) used in the tests (protein)
chain: MASKWKLFKKIEKVGQNIRDGIIKAGPAVAVVGQATQIAKGSGSGSMGTVLKRGDRGSAVEDLQMKLNVAGYNLSADGIFGGDTEKAVRDVQAGAGLVVDGKVGPKTLYAIAKSATVPAKWEAIPFPTANKSRSAAMPTLNAVGAMTGVDSRLLATFASIESAFDYTVKAKTSSATGWFQFLDATWDDMIKAYGSKYGIPKDPTRALRKDPRANALMGAEFIKGNAAVLRPVINREPSDTDLYLAHFLGAGGAKKFLSADQKTLGEVLFPKPAKANPSIFSNKGVPRTLAEIYKLFEDKVSKHRALEHHHHHH
modifications: synthetic_Fusion Polypeptide LNT103 with MAS, His tag, and extra sequence
MBC (P. aeruginosa; P. aeruginosa ATCC 9027): 16 µg/mL
MIC (P. aeruginosa; P. aeruginosa ATCC 9027): 16 µg/mL
MBC (P. aeruginosa; P. aeruginosa ATCC 10145): 32 µg/mL
MIC (P. aeruginosa; P. aeruginosa ATCC 10145): 16 µg/mL
MBC (P. aeruginosa; P. aeruginosa ATCC 15522): 16 µg/mL
MIC (P. aeruginosa; P. aeruginosa ATCC 15522): 16 µg/mL
MBC (P. aeruginosa; P. aeruginosa ATCT 13388): 16 µg/mL
MIC (P. aeruginosa; P. aeruginosa ATCT 13388): 8 µg/mL
MBC (P. aeruginosa; P. aeruginosa CCARM 2134): 16 µg/mL
MIC (P. aeruginosa; P. aeruginosa CCARM 2134): 8 µg/mL
MBC (P. aeruginosa; P. aeruginosa CCARM 2144): 32 µg/mL
MIC (P. aeruginosa; P. aeruginosa CCARM 2144): 32 µg/mL
MBC (P. aeruginosa; P. aeruginosa F102): 8 µg/mL
MIC (P. aeruginosa; P. aeruginosa F102): 8 µg/mL
MBC (P. aeruginosa; P. aeruginosa F141): 8 µg/mL
MIC (P. aeruginosa; P. aeruginosa F141): 8 µg/mL
MBC (P. aeruginosa; P. aeruginosa F265): 16 µg/mL
MIC (P. aeruginosa; P. aeruginosa F265): 16 µg/mL
MBC (P. aeruginosa; P. aeruginosa F341): 8 µg/mL
MIC (P. aeruginosa; P. aeruginosa F341): 8 µg/mL
MBC (P. aeruginosa; P. aeruginosa F388): 8 µg/mL
MIC (P. aeruginosa; P. aeruginosa F388): 8 µg/mL
MBC (P. aeruginosa; P. aeruginosa PAO1(ATCC 15692)): 16 µg/mL
MIC (P. aeruginosa; P. aeruginosa PAO1(ATCC 15692)): 8 µg/mL
MBC (E. coli [1]; E. coli ATCC 8739): 8 µg/mL
MIC (E. coli [1]; E. coli ATCC 8739): 8 µg/mL
MBC (E. coli [1]; E. coli CCARM 1A746): 8 µg/mL
MIC (E. coli [1]; E. coli CCARM 1A746): 8 µg/mL
MBC (E. coli [1]; E. coli CCARM 1B684): 8 µg/mL
MIC (E. coli [1]; E. coli CCARM 1B684): 4 µg/mL
MBC (E. coli [1]; E. coli CCARM 1G448): 4 µg/mL
MIC (E. coli [1]; E. coli CCARM 1G448): 4 µg/mL
MBC (E. coli [1]; E. coli CCARM 1460): 4 µg/mL
MIC (E. coli [1]; E. coli CCARM 1460): 4 µg/mL
MBC (E. coli [1]; E. coli F340): 16 µg/mL
MIC (E. coli [1]; E. coli F340): 16 µg/mL
MBC (E. coli [1]; E. coli F481): 8 µg/mL
MIC (E. coli [1]; E. coli F481): 8 µg/mL
MBC (E. coli [1]; E. coli F485): 8 µg/mL
MIC (E. coli [1]; E. coli F485): 4 µg/mL
MBC (E. coli [1]; E. coli F524): 16 µg/mL
MIC (E. coli [1]; E. coli F524): 16 µg/mL
MBC (E. coli [1]; E. coli F716): 32 µg/mL
MIC (E. coli [1]; E. coli F716): 16 µg/mL
MBC (E. coli [1]; E. coli F852): 32 µg/mL
MIC (E. coli [1]; E. coli F852): 16 µg/mL
MBC (E. coli [1]; E. coli F859): 32 µg/mL
MIC (E. coli [1]; E. coli F859): 32 µg/mL
MBC (E. coli [1]; E. coli F862): 4 µg/mL
MIC (E. coli [1]; E. coli F862): 4 µg/mL
MBC (E. coli [1]; E. coli FORC81): 4 µg/mL
MIC (E. coli [1]; E. coli FORC81): 4 µg/mL
MBC (E. coli [1]; E. coli UPEC 3042): 32 µg/mL
MIC (E. coli [1]; E. coli UPEC 3042): 32 µg/mL
MBC (E. coli [1]; E. coli UPEC 3181): 8 µg/mL
MIC (E. coli [1]; E. coli UPEC 3181): 8 µg/mL

B2: LNT101: endolysin derived from bacteriophage PBPA90, amino acid sequence SEQ ID NO: 1 (259 aa), purified with 6× His tag (protein)
chain: MGTVLKRGDRGSAVEDLQMKLRVAGYAVSADGIFGGDTEKAVRDFQASKALVVDGKVGPATLAELAKSATVPAKWEAIPFPTANKSRSAAMPTLNAVGAMTGTDSRLLATFASIESAFDYTVKASTSSATGWFQFLDATWDDMIKAHGSKYGIPKDPTRALRKDPRANALMGAEFLKGNAAVLRPVINREPSDTDLYLAHFLGAGGAKKFLSADQKTLGEVLFPKPAKANPSIFSNKGVPRTLAEIYKLFEDKVSKHRA
modifications: 6xHis tag; synthetic_Endolysin LNT101
production of the halo zone (Salmonella typhimurium): ◯
production of the halo zone (Campylobacter jejuni): ◯
production of the halo zone (Klebsiella aerogenes): ◯
production of the halo zone (Klebsiella pneumoniae): ◯
production of the halo zone (Enterobacter cloacae): ◯
production of the halo zone (Pseudomonas aeruginosa; P. aeruginosa ATCC 9027): ◯
production of the halo zone (Pseudomonas aeruginosa; P. aeruginosa ATCC 10145): ◯
production of the halo zone (Pseudomonas aeruginosa; P. aeruginosa ATCC 13388, 10 μl (2 mg/ml), 37° C. 18 hours): ◯
production of the halo zone (Pseudomonas aeruginosa; P. aeruginosa ATCC 15522): ◯
production of the halo zone (Pseudomonas aeruginosa; P. aeruginosa ATCC 15692): ◯
production of the halo zone (Pseudomonas aeruginosa; P. aeruginosa ATCC 25619): ◯
production of the halo zone (Pseudomonas aeruginosa; P. aeruginosa ATCC 27853): ◯
production of the halo zone (Pseudomonas aeruginosa; P. aeruginosa CCARM 2029): ◯
production of the halo zone (Pseudomonas aeruginosa; P. aeruginosa CCARM 2134): ◯
production of the halo zone (Pseudomonas aeruginosa; P. aeruginosa CCARM 2144): ◯
production of the halo zone (Pseudomonas aeruginosa; P. aeruginosa CCARM 2200): ◯
production of the halo zone (Pseudomonas aeruginosa; P. aeruginosa CCARM 2298): ◯
production of the halo zone (Pseudomonas aeruginosa; P. aeruginosa CCARM 2326): ◯
production of the halo zone (Pseudomonas aeruginosa; P. aeruginosa PR1957): ◯
production of the halo zone (Cronobacter sakazakii): ◯
production of the halo zone (Salmonella enteritidis): ◯
production of the halo zone (E. coli [2]): ◯
